{"source": "paper PMC3159028", "origin": "cited, not measured here", "target": "Ndel1 58-169 (Homo sapiens) (UniProt Q9GZM8)", "sequence (Q9GZM8 58-169)": "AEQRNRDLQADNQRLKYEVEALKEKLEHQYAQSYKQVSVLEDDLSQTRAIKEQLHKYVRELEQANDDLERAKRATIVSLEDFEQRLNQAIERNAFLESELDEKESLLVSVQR"}
{"substance": "Lis1 (from UniProt P43034)", "values": [{"measurement": "Kd", "value": 300, "unit": "nM"}]}
